Test results from patent US8084228B2, “Nogo-B receptor antagonists” (Yale University, priority 2006, dated 2011).

B1: mFc-ecto: Fc fusion of amino acids 52-116 of NgBR (SEQ ID NO:1), HA-, heptahistidine tagged fusion protein (protein)
chain: LGFTLRKPPAVGRNRRHHRHPRGGSCLAAAHHRMRWRADGRSLEKLPVHMGLVITEVEQEPSFSD
modifications: also: Fc fusion, HA tag, heptahistidine tag
B2: NgBR: human Nogo-B receptor, 293 amino acids, SEQ ID NO:1; immunoisolated as NgBR-HA from CHO cells (protein, listed as Homo sapiens)
chain: MTGLYELVWRVLHALLCLHRTLTSWLRVRFGTWNWIWRRCCRAASAAVLAPLGFTLRKPPAVGRNRRHHRHPRGGSCLAAAHHRMRWRADGRSLEKLPVHMGLVITEVEQEPSFSDIASLVVWCMAVGISYISVYDHQGIFKRNNSRLMDEILKQQQELLGLDCSKYSPEFANSNDKDDQVLNCHLAVKVLSPEDGKADIVRAAQDFCQLVAQKQKRPTDLDVDTLASLLSSNGCPDPDLVLKFGPVDSTLGFLPWHIRLTEIVSLPSHLNISYEDFFSALRQYAACEQRLGK
modifications: HA tag
notes: immunoisolated as NgBR-HA from CHO cells

What was measured:
Endothelial cells [1] = experiment: Am-Nogo-B-induced migration of endothelial cells, inhibition by NgBR ectodomain peptides or fusion protein; assay type: cell-based; details: endothelial cells (FIG. 35)
Description: Cell migration was examined in modified Boyden chambers using 10 nM each of purified recombinant AP, AP fusion of Nogo-66 (AP-Nogo-66) or Am-Nogo-B. The transwell inserts (Costar transwell inserts; Corning) were coated with a solution of 0.1% gelatin (Sigma) in PBS at 4° C. overnight and then air-dried. VEGF at 50 ng/mL (1.1 nM) or recombinant Am-Nogo-B at various concentrations dissolved in medium 199 containing 0.1% BSA was added in the bottom chamber of the Boyden apparatus. HUVEC (200,000 cells) suspended in a 100 μL aliquot of medium 199 containing 0.1% BSA was added to the upper chamber. After 5 hours incubation, cells on both sides of the membrane were fixed and stained with a Diff-Quik staining kit (Baxter Healthcare, Miami, Fla.). The average number of cells from five randomly chosen high-power (×400) fields on the lower side of the membrane was counted.
Endothelial cells were incubated with vehicle (control) of one of peptides P1-P4 (200 nM each) in the presence of Am-Nogo-B (100 nM).
Similarly, treatment of endothelial cells with mFc-ecto, but not mFc, blocked Am-Nogo-B-induced cell migration (FIG. 35).

Endothelial cells [2] = experiment: Blocking of AP-Am-Nogo-B binding to endothelial cells; details: 20 nM and 100 nM
Description: To detect AP-Am-Nogo-B binding, cultures were washed with Hanks' balanced salt solution (HBSS) containing 20 mM HEPES, pH 7.5, and 1 mg/mL BSA (HBH). The plates were then incubated with AP-Am-Nogo-B in DMEM containing 20 mM Hepes, pH 7.5, and 1 mg/mL BSA for 2 hours at 4° C. The bound AP-Am-Nogo-B was detected by using the Blue Substrate kit (Vector Laboratories). The blue staining was examined by using the ODYSSEY Infrared Imaging System (Li-Cor, Lincoln, Nebr.) and confirmed by microscopy. Alternatively, the bound AP-Am-Nogo-B was extracted with Triton X-100, and AP activity was colorimetrically quantified by using p-nitrophenyl phosphate (Sigma) as substrate after heat inactivation of endogenous AP. Non-specific binding was determined by measuring binding in the presence of a 100-fold molar excess of recombinant Am-Nogo-B lacking the AP fusion protein. Specific binding was determined by subtracting the non-specific binding from total binding. For determination of apparent Kd, the binding of AP-Am-Nogo-B was measured in triplicate as described above and the Kd value was quantified by using the Scatchard plot program of GraphPad PRISM (one-site binding, linear regression) using the ratio of bound ligand to free ligand as the y axis and bound ligand (pM) as the x axis. […]

[3] = Lipid transferase activity, [1-14C]IPP incorporation into polyprenyl diphosphates; assay type: biochemical; details: 1 μg immunoisolated protein, 20 minutes at 37° C.
Description: NgBR and NgBR lacking the cytoplasmic domain (NgBR-CD) was immunoisolated from CHO cells expressing NgBR-HA or NgBR-CD by using anti-HA matrix beads. Lipid transferase activity was measured by determining the amount of [1-^14C]IPP (isopentenyl pyrophosphate) incorporated into butanol-extractable polyprenyl diphosphates. The activity was assayed in a 50 μL reaction containing 50 mM Hepes, pH 7.5, 2 mM MgCl2, 5 mM KF, 1 mM DTT, 0.5% CHAPS, 50 μM [1-^14C]IPP (0.15 μCi per reaction) and 50 μM allylic isoprenoid diphosphate (farnesyl diphosphate, geranylgeranyl diphosphate). The reaction was started by the addition of 1 μg of protein and allowed to proceed for 20 minutes at 37° C. Mouse liver extract (1 μg) was used as a positive control for the assay. The reaction was stopped by the addition of 0.5 mL of 1-butanol saturated with water, […] followed by the addition of 0.5 mL of 2 M KCl. An aliquot of the butanol phase was removed for scintillation counting using SafeScint scintillation (American Bioanalytic, Natick, Mass.).

Molecule	Am-Nogo-B-induced cell migration in presence of Fc protein (Endothelial cells [1])	binding of AP-Am-Nogo-B to endothelial cells in presence of Fc protein (Endothelial cells [2])	lipid transferase activity [3]
B1	blocked	blocked	
B2			negative
